Target: T1, SCEEVCKPGGP (SEQ ID NO:47)
T1 chain: SCEEVCKPGGP

B1: Cathepsin K (protein)
chain: APDSVDYRKKGYVTPVKNQGQCGSCWAFSSVGALEGQLKKKTGKLLNLSPQNLVDCVSENDGCGGGYMTNAFQYVQKNRGIDSEDAYPYVGQEESCMYNPTGKAAKCRGYREIPEGNEKALKRAVARVGPVSVAIDASLTSFQFYSKGVYYDESCNSDNLNHAVLAVGYGIQKGNKHWIIKNSWGENWGNKGYILMARNKNNACGIANLASFPKM
For B1, the “cleavage of the peptide by the enzyme” value was “This peptide did not inhibit cathepsin K but rather was cleaved by the enzyme”.

Source: patent US20150133367
